Test: soluble on expression in E. coli; label from the status in PepcDB or PDB records

Row | Sequence | soluble on expression in E. coli
1 | MARHSALAQAERLEPLLTTNPLHGATLERIVTHLHDEYGWEELARRVPVKCFQNEPSVGSSLKFLRKTPWAREQVEAEYVKLARREDANPLIDALKRGQALDFTGVSQTKLHAALGWMLRHVEQNAQNLQLYFLPTLAHIQDVNFWPDAEPLPLLNLAIDRSALGAGDYEPGVVAELLRRGADANDPRFWPPLLHTVDVEGQAYQSKTRAPRTDLFDLLLAHGADPALEDSRGNTARSMAEAYGLRAVINKLNTLPAVSGSLEHHHHHH | soluble
2 | MSRFPRRFIDDSSMEDAGISLCPSIHYRPINPNDLDRLEQIHRDIFPIKYESEFFQSVVNGVDIVSWAAVDRSRPDDHSDELIGFVTAKFVLAKDSEIDDLIHYDSSKGEETLIYILTLGVVETYRNRGIAMSLISEVIKYASGLSVCRGVYLHVIAHNNAAICLYKRLMFRCVRRLHGFYLINRHHFDAFLFVYFINGSRTPCSPLEVAMFVVNYMKSGIKSVASKLANKDEKGLKWLFCKDTDCV | soluble
3 | MGSDKIHHHHHHMAVFSQYFGKLNQYKNALTQKVDNYWTLSCFQDVAAINPWLVPGQGRKTGSSIVLKNDVLVELGSPEAGSCSMTLYTNSPHQITDGWITLMGSDITEYTPKKLPFGQVIMVGGEHLTEEDYYYLLQNLNVSEMIEGYMIRSTAESIWCRISKDAAKNGFNFHVLGSVLNWHIKQILPKVKAVEIVFVTTTKEDIEELNQISKEVGEIGRRIKERIWREKGVDIYKCVPGGHCGACEDKTVCDTIRKIGAGR | not soluble
4 | MGSDKIHHHHHHMTQLAPDSSIINAQACLSLDEAYEACRKETAQWAKTFYLGTMLLPSIKRRAIWAIYVWCRRTDELMDSAEAQTRPVSELANRLDQWEERTRAMFAGQVLDGLDAVMADTLERFPQSIQPYLDMIEGQRMDLNQHRYATFQQLELYCYRVAGTVGLMTQHVMGLDPAYTTAPWSSSPETSDAAIALGIANQLTNILRDVGEDRGRGRIYIPQEDLDRFGYSEADLMAGRLNSAWKDLMAFQLERAREWFARSEAGVRWLSQDARWPVWASLRLYRGILDSIERLDYDVFNNRAYVSRWMKLVDLPLSYLMAQAR | not soluble
5 | GSHGMSKSPEEEHPVKAFGWAARDQSGHLSPFNFSRRATGEEDVRFKVLYCGVCHSDLHSIKNDWGFSMYPLVPGHEIVGEVTEVGSKVKKVNVGDKVGVGCLVGACHSCESCANDLENYCPKMILTYASIYHDGTITYGGYSNHMVANERYIIRFPDNMPLDGGAPLLCAGITVYSPLKYFGLDEPGKHIGIVGLGGLGHVAVKFAKAFGSKVTVISTSPSKKEEALKNFGADSFLVSRDQEQMQAAAGTLDGIIDTVSAVHPLLPLFGLLKSHGKLILVGAPEKPLELPAFSLIAGRKIVAGSGIGGMKETQEMIDFAAKHNITADIEVISTDYLNTAMERLAKNDVRYRFVIDVGNTLAATKP | soluble
6 | MGSDKIHHHHHHMKLYELAMTPSARRVNIFLKELGLNEQELGLERESLNLRAGDNLSDEFKAISVNGRIPVLELDDGQTLCESVAICRYFDEIITSAHSLFGDTPLEKAQVEMWQRICELQGLFVAFQAFRNITKVYEDRERCVEAWGQESRQRVIEFLPTLEKQLGQQPFVAGQNFSIADITAYVMMSFIKHLEITPSDDQPHLTAWLTKMEQRPSIIAVNG | not soluble
7 | MNTTDRQITFSALSCLLSYPDEEWRAELPDWKALIQEIGNRQIREKLLHFFETSASYSPEALIEHYVYTFDFGKKTNMYVTYFNSGEQRERGIELLHLKNTYEQSGFLPTEKELPDYLPLMLEFAAAAEIEAARSVFEKYLSNVRELASRLEKNDSIYAELLHVLLAALENIGVRESVEGAVQALEHHHHHH | not soluble
8 | MTNSIHEMIRASFKCEDMVKCVLGLKSLDIEAYKALLMHGPQTAEKLGEILNRERSTAYRSLQNLIACGIVYRETRSIESGGYYYEYVAIEPQEMKRMVKKNVDEWYNQMNELIEKMDDKVNALVTRLEDDEAKQK | not soluble
9 | MGSDKIHHHHHHMSIAHQNAHTIIRDILSKQHIERVWFVGCGGSLTGFWPGKYFLDCEAKKLAVGYVTSNEFVHATPNALGKNSVVILASQQGNTAETVEAARIARQKGAATIGLVYTPGTPLCEHSDYTIKYCWARYPETVDPTQQKAAYSLWLALEVLAQTEGYAHYDEMVSAFASFESVVRGAQQQVQADARHFAEAWKTEKVIYMMGSGPSFGAAHQESICILLEMQWINSASIHSGEYFHGPFEITETGTPFILLKSSGRTRPLDDRAIRFIERYQGKLQIIDVEKVGINALHASVREYFCGLLHNCVLDVYNLALATARNHPLTTRRYMWKVEY | not soluble
10 | MARTVFCTRLQKEADGLDFQLYPGELGKRIFDNICKEAWAQWQTKQTMLINEKKLNMMDPEHRKLLEQEMVNFLFEGKEVHIEGYTPPAK | not soluble
11 | MHHHHHHENLYFQGSTSENITQKVVWVEESDKRSFLLDLLNATGKDSLTLVFVETKKGADSLEDFLYHEGYACTSIHGDRSQRDREEALHQFRSGKSPILVATAVAARGLDISNVKHVINFDLPSDIEEYVHRIGRTGRVGNLGLATSFFNERNINITKDLLDLLVEAKQEVPSWLENMAYEHHY | soluble
12 | AVMHYTSDTEFCVSCHSMEIPYKEYQGSVHFSNAKGIRAECSDCHIPQEPMDYLITKIRASKDIYHEFVTGKIDTPEKYEAHRKDMAETVWAQFRENDSATCRSCHDFDAMEEFEQSRDAAKMHEYAKANDQTCIDCHKGVAHFAPEAELDSKAFETLMSFTTKTAANAKVVYPVTTINMGEMGTINPTTKLEVMSAEGDNRTVKLNAFQMKGAEQVLYMGEGQRAIVATLTEQGQQALEAGEFEADVYGNEWRAVSLTGAIDSPVVDTLDPVWSYAEELDNVYCATCHAKIPSNHFTV | not soluble
13 | MAHHHHHHMTSFKDCLREVREAATEHLEGYRGGDTEKALQHIPREEALTTISLVAIRLLEQELPKRGAGNDASQHELHAQLRACRKALKSHSARSAAGDEGTSDKKRRRTEESTEAPTSSSYRGSATADRSGTSNSIELGQYASSDAFDQNEQKRMKFARLMGGAKVAAQGTGGAGGHSRHNTFAASNAELKRMNANLESQFESAMSHKGKKGLGA | soluble
14 | MTENVNSSGDSAIKSEDKEEVTVIQEGQAKVGFHGPVFYNPVQEFNRDLTVTVLRQFSADHQKWAEEQKQLKTEEEPPKKKNKLAINEDGKIRILDALSASGLRALRFSKEVPNVGFIMANDFSDNAVASIQENVKLNGVEDIVEAHFGDAVMTMMEHRGIDKRFHAVDLDPYGTASTFLDSAVQCVADRGILMVTCTDMAVLCGNTPEACYNKYDAVTTRMKCCHEVGLRILLRAIDSAANRYTRYIEPLVSISVDFYVRVFVRVHTGAFQAKQSGTKVGTVLVCSGCHSMEPLVLLKRGEGNQQSKYSIPTVRHSISGPGNRCIHCLLPLHQIGPIYLAPIHSKPFVTSLLERLKSTPEAERLGTHGRLQGVLTMVNEELDDVLYYEHNQMANVVKVSVPKSQSVRSAILNAGFKVSGSHCNPRAIKTNAPMHLLWDIYRQVAKDTSVDREKRLAKESAGYHILGQPITNTVNFTLHPGAIEQAKKENLVRFQCNKGKNWGPRQKAKGSVNSTKAGFQLTEHKE | not soluble
15 | MGHHHHHHSHREMVLQFLAFSRVAQDCRGTSWPKTVYFTFQFYRFPPATTPRLQLVQLDEAGQPSSGALTHILVPVSRDGTFDAGSPGFQLRYMVGPGFLKPGERRCFARYLAVQTLQIDVWDGDSLLLIGSAAVQMKETSHIFSVSQ | not soluble
16 | MAHHHHHHMAVSQLLEMKLITRPRANLTQENVNAMVEFDYELAKKAQIAVDNNLPVNFFDLEYIDKPEYLAQLLEEKNILEKTREEVLKREKGNYKTPEILKNYKRVEVPREWRQELEIDEKILKAQPGLKENIELQKIMHNYVQSKFKSKVPGQPQKKHVKG | soluble
17 | MNLAGSTIQAYRQRKIESLAKMSNMSQDDVTTGLRTVQQGLEALREEHSTISNTLETSVKGVKEDEAPLPKQKLSQINDNLDKLVCGVDETSLMLMVFQLTQGMDAQHQKYQAQRRRLCQENAWLRDELSSTQIKLQQSEQMVAQLEEENKHLKYMASIKQFDDGTQSDTKTSVDVGPQPVTNETLQELGFGPEDEEDMNASQFNQPTPANQMAASANVGYEIPARLRTLHNLVIQYASQGRYEVAVPLCKQALEDLEKTSGHDHPDVATMLNILALVYRDQNKYKEAANLLNEALSIREKCLGESHPAVAATLNNLAVLFGKRGKFKDAEPLCKRALEIREKVLGDDHPDVAKQLNNLALLCQNQGKYEEVEKYYKRALEIYESKLGPDDPNVAKTKNNLSSAYLKQGKYKEAEELYKQILTRAHEREFGQISGENKPIWQIAEEREENKHKGEGATANEQAGWAKAAKVDSPTVTTTLKNLGALYRRQGKYEAAETLEDVALRAKKQMSESRRMERSVMY | not soluble
18 | MGSDKIHHHHHHMVGCLTLTLLVGCSAAEKPVEQVKQVKNTLTAKLATEEKMIEIDGQTIYFKKIGNEKPPLLMIHGFGGSSDGFQKIYSDLAKNHTIISVDALGFGRSSKPMDFYYSFPTHANLYYKLMKKLGYDSFAILGHSMGGEISLNLTYLYPEAVTHLILTDATGGPHTLVNKQGSPRPQLSTDLNTVSAITDYDESKVKFKRNDEEHYNKMKLWPRRLQINADEIKQPTLIIWGRNDSSVSWEEGETYHQFFKNSTFHIIEKGYHAPFRQEPQEFVGYVKDFFDKNPIIAEK | not soluble
19 | MGSDKIHHHHHHMGDLSFIAINDKCEVVLDNEIYKSNIQGIEEKYIAISLPVANGTYAIMHKGDMTEIWCYHDNQVYSFTSTVIERKKEDAIKLILISKPSYENIKRVQRRKNFRVDLIESIKYKVLNKNVVKTEIEKLKEASEEFSDGYMIDLSGGGLKIRIKQKPNVGDSIFVNLPIGDQKLFLISTCVRAIREVNGEYLCGLEFDDDIDERIREHIINYTFNIMRKHMKKR | not soluble
20 | SDRFVWTSGLLEINETLVIQQRGVRIYDGEEKIKFDAGTLLLSTHRLIWRDQKNHECCMAILLSQIVFIEEQAAGIGKSAKIVVHLHPAPPNKEPGPFQSSKNSYIKLSFKEHGQIEFYRRLSEEMTQRRWENMPVSQSLQTNRGPQPGRIRAVGIVGIERKLEEKRKETDKNISEAFEDLSKLMIKAKEMVELSKSIANKIKDKQGDITEDETIRFKSYLLSMGIANPVTRETYGSGTQYHMQLAKQLAGILQVPLEERGGIMSLTEVYCLVNRARGMELLSPEDLVNACKMLEALKLPLRLRVFDSGVMVIELQSHKEEEMVASALETVSEKGSLTSEEFAKLVGMSVLLAKERLLLAEKMGHLCRDDSVEGLRFYPNLFMTQS | soluble
21 | MKKALTTRHPPIDVYCICREVTEVMEKLHAADAETIPLASNIQMVNMVNNYVIMSYGLLHDDYEYGAITESCRKDVLLLLRELFPRKIYLWEN | soluble
22 | MGHHHHHHSHMEFVTNYTLEELKKRFTELGLEPYRAKQVFRWVYKKFVTDFEKMTDLGKKHRELLKEHFAFHPLEKLDRVEAPDAVKYLFKTKDGHILETVLIKERDHYTLCVSSQIGCAVGCTFCATALDGLKRNLSTAEIIDQYLQVQQDLGEEKIRNVVFMGMGEPLANYENVRKAVEIMVSPEGLDLSKRRITISTSGIVAQIKRMAQDPVMKEVNLAVSLNAVSQKKREELMPLTKTNTLEELMEVLKNYPLPKYRRITLEYVLIKGVNDSPNDAERLAKLIGRHKKKFKVNLIPFNPDPNLPYERPALTDIMKFQKVLWKYGISNFVRFSKGVEVFGACGQLRTQRLQLQRV | soluble
